This is an account of results in patent publication WO2013059531A1 (dated 2013).

The target in experiment [1] is solubilized, full length GCGR, biotinylated (from baculovirus particles) (Homo sapiens (Human)) (UniProt P47871). Put plainly: Octet BLI kinetics, biotinylated solubilized full length GCGR on streptavidin tips, Fab in solution.
The target in experiment [2] is T1, GCGR (glucagon receptor) on primary human hepatocytes (human, UniProt P47871 26-477).
T1 construct: Endogenous receptor on primary human hepatocytes (Celsis)
T1 sequence (P47871 26-477 limits assumed): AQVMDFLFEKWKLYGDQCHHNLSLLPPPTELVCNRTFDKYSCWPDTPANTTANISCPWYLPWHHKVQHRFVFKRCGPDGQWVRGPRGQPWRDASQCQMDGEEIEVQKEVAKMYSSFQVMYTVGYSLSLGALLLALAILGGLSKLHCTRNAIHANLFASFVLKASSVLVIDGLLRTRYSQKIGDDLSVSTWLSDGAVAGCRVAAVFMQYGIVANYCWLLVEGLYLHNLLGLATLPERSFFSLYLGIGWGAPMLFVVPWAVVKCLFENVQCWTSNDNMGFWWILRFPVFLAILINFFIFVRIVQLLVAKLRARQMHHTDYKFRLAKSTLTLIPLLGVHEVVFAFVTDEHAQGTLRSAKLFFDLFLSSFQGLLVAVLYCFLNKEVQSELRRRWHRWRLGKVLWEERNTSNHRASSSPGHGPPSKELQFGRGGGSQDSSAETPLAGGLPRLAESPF
The experiment in a line: competition with 3 nM 125I-glucagon on primary human hepatocytes, gamma counting.

solubilized, full length GCGR, biotinylated (from baculovirus particles) (Homo sapiens (Human)), sequence (P47871 26-477): as the sequence (P47871 26-477 limits assumed) above

B1: H6.23v3 Fab fragment (Fab, V domains shown)
VH: EVQLVESGGGLVQPGGSLRLSCAASGFNIYYNYIHWVRQAPGKGLEWVAEFSPYSGSTYYADSVKGRFTISADTSKNTAYLQMNSLRAEDTAVYYCARSAAIVDWYDYFKGFDYWGQGTLVTVSS
VL: DIQMTQSPSSLSASVGDRVTITCRASQSVSSAVAWYQQKPGKAPKLLIYSASSLYSGVPSRFSGSRSGTDFTLTISSLQPEDFATYYCQQYGSYLYTFGQGTKVEIK
B1 showed a fold increase in affinity (Kd) over H6.23v2 in experiment [1] of 3 fold.

B2: anti-GCGR antibody H6.23v3 (antibody, V domains shown)
VH: EVQLVESGGGLVQPGGSLRLSCAASGFNIYYNYIHWVRQAPGKGLEWVAEFSPYSGSTYYADSVKGRFTISADTSKNTAYLQMNSLRAEDTAVYYCARSAAIVDWYDYFKGFDYWGQGTLVTVSS
VL: DIQMTQSPSSLSASVGDRVTITCRASQSVSSAVAWYQQKPGKAPKLLIYSASSLYSGVPSRFSGSRSGTDFTLTISSLQPEDFATYYCQQYGSYLYTFGQGTKVEIK
With B2, in experiment [2], the binding result is “binds”.
